Test results taken from paper PMC7933155, “IL-23p19 and CD5 antigen-like form a possible novel heterodimeric cytokine and contribute to experimental autoimmune encephalomyelitis development” (Scientific Reports, 2021).

Biological target: the molecule itself
Experiment: non-reducing SDS-PAGE and western blot; culture supernatants of HEK293T cells transfected with a p19 expression vector, western blot under non-reducing conditions

B1: mouse IL-23 p19 from HEK293T cells transfected with a p19 expression vector (vector not named) (natural protein, UniProt Q9EQ14 22-196, looked up)
chain: VPRSSSPDWAQCQQLSRNLCMLAWNAHAPAGHMNLLREEEDEETKNNVPRIQCEDGCDPQGLKDNSQFCLQRIRQGLAFYKHLLDSDIFKGEPALLPDSPMEQLHTSLLGLSQLLQPEDHPRETQQMPSLSSSQQWQRPLLRSKILRSLQAFLAIAARVFAHGAATLTEPLVPTA
notes: Interleukin-23 subunit alpha (p19), mouse; source: HEK293T, transfected, in culture supernatant
stoichiometry N: 2
